{"source": "patent US20180334496A1", "about": "(KODIAK SCIENCES, published 2018)", "binders": {"B1": {"name": "28H31S54V59D / 101V (antibody, V domains shown)", "VH": "EVQLVESGGGLVQPGGSLRLSCAASGYHFTSYYMNWVRQAPGKGLEWIGDINPVTGDTDYNADFKRRFTFSLDTSKSTAYLQMNSLRAEDTAVYYCTREGPSFAYWGQGTLVTVSS", "VL": "DIQLTQSPSSLSASVGDRVTITCRSSQTIVHSNGDTYLEWYQQKPGKAPNLLIYKVSNRFSGVPSRFSGSGSGTDFTLTISSLQPEDFATYYCFQGSHVPVTFGQGTKVEIK", "notes": "KCD119 TAF variant; full antibody captured on protein A"}, "B2": {"name": "54I59D / 54G60W101 (antibody, V domains shown)", "VH": "B1 VH with H28T, S31D, V54I", "VL": "B1 VL with Y54G, F60W"}, "B3": {"name": "31S48V54V59D / 101V (antibody, V domains shown)", "VH": "B1 VH with H28T, I48V", "VL": "B1 VL", "notes": "as for B1"}, "B4": {"name": "54I59D / 101V (antibody, V domains shown)", "VH": "B1 VH with H28T, S31D, V54I", "VL": "B1 VL", "notes": "as for B1"}, "B5": {"name": "54V59D / 32D50I101V (antibody, V domains shown)", "VH": "B1 VH with H28T, S31D", "VL": "B1 VL with S32D, N50I", "notes": "as for B1"}, "B6": {"name": "31S54I59D84S / 32W60W101V (antibody, V domains shown)", "VH": "B1 VH with H28T, V54I, N84S", "VL": "B1 VL with S32W, F60W", "notes": "Label printed 31S54I59D845, read as 84S; full antibody captured on protein A; also called 31S54I59D845 / 32W60W101V"}, "B7": {"name": "31S54I59D / 50I60W101V (antibody, V domains shown)", "VH": "B1 VH with H28T, V54I", "VL": "B1 VL with N50I, F60W", "notes": "as for B1"}, "B8": {"name": "54V56V / 101V (antibody, V domains shown)", "VH": "B1 VH with H28T, S31D, G56V, D59S", "VL": "B1 VL", "notes": "as for B1"}, "B9": {"name": "54I59D / 32W54S60W101V (antibody, V domains shown)", "VH": "B1 VH with H28T, S31D, V54I", "VL": "B1 VL with S32W, Y54S, F60W", "notes": "Light label printed 32W54560W101V, read as 32W54S60W101V; also called 54I59D / 32W54560W101V"}, "B10": {"name": "28K31S54V59D / 101V (antibody, V domains shown)", "VH": "B1 VH with H28K", "VL": "B1 VL", "notes": "as for B1"}, "B11": {"name": "28I31S54V59D / 101V (antibody, V domains shown)", "VH": "B1 VH with H28I", "VL": "B1 VL", "notes": "as for B1"}, "B12": {"name": "54V59D / 32D60W101V (antibody, V domains shown)", "VH": "B1 VH with H28T, S31D", "VL": "B1 VL with S32D, F60W", "notes": "as for B1"}, "B13": {"name": "54I59D / 32W33G60W101V (antibody, V domains shown)", "VH": "B1 VH with H28T, S31D, V54I", "VL": "B1 VL with S32W, N33G, F60W", "notes": "KCD119 TAF variant; same label printed in three rows"}, "B14": {"name": "54V59D / 101V (antibody, V domains shown)", "VH": "B1 VH with H28T, S31D", "VL": "B1 VL", "notes": "as for B1"}, "B15": {"name": "54I59D84T / 32W60W101V (antibody, V domains shown)", "VH": "B1 VH with H28T, S31D, V54I, N84T", "VL": "B1 VL with S32W, F60W", "notes": "as for B1"}}, "key": {"[1]": {"biological_target": "T1, serum purified human Complement Factor D (human, UniProt P00746 26-253)", "T1 construct": "Serum purified protein flowed over the captured antibodies; also called CFD; human CFD", "T1 sequence (P00746 26-253)": "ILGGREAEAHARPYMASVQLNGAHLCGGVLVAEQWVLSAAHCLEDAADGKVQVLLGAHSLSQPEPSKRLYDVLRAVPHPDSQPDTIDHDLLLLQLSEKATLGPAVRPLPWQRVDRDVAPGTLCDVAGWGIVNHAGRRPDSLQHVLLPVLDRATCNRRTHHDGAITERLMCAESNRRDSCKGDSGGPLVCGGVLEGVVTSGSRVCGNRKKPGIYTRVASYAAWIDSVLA", "assay": "SPR Biacore, antibody on protein A chip, single cycle kinetics, 25 C;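 note: antibodies captured to roughly 70 RU on the protein A surface in HBS-EP+ running buffer, with kinetic constants derived by BIAevaluation fitting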", "protocol": "(§1) Antibodies were diluted to 0.5 ug/ml in HBS-EP+ buffer and captured on a protein A chip for 25 seconds to reach approximately 70 resonance units. […] Binding kinetic information was obtained by the BIAevaluation software (GE)."}, "[2]": {"biological_target": "T1, serum purified human Complement Factor D", "assay": "SPR Biacore, antibody on protein A chip, single cycle kinetics, 37 C;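 note: antibodies captured on the protein A surface to roughly 70 RU in HBS-EP+ buffer, with rate and affinity constants fitted using BIAevaluation software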", "protocol": "as §1"}}, "note": "Changes are numbered by the printed parent chain. Values joined by “and” are separate entries in the source; they are usually repeats but may differ in a detail not shown here. Identical values can stand only once."}
{"binder": "B1", "values": [{"measurement": "Kd", "setting": "[1]", "value": 0.0251, "unit": "nM"}, {"measurement": "koff", "setting": "[1]", "value": 0.000167, "unit": "s⁻¹"}, {"measurement": "kon", "setting": "[1]", "value": "6.65e+06", "unit": "M⁻¹ s⁻¹"}, {"measurement": "Kd", "setting": "[2]", "value": 0.0257, "unit": "nM"}, {"measurement": "koff", "setting": "[2]", "value": 0.000443, "unit": "s⁻¹"}, {"measurement": "kon", "setting": "[2]", "value": "1.72e+07", "unit": "M⁻¹ s⁻¹"}]}
{"binder": "B2", "values": [{"measurement": "Kd", "setting": "[1]", "value": 0.0125, "unit": "nM"}, {"measurement": "koff", "setting": "[1]", "value": "8.54e-05", "unit": "s⁻¹"}, {"measurement": "kon", "setting": "[1]", "value": "6.83e+06", "unit": "M⁻¹ s⁻¹"}, {"measurement": "Kd", "setting": "[2]", "value": 0.00989, "unit": "nM"}, {"measurement": "koff", "setting": "[2]", "value": 0.000118, "unit": "s⁻¹"}, {"measurement": "kon", "setting": "[2]", "value": "1.19e+07", "unit": "M⁻¹ s⁻¹"}]}
{"binder": "B3", "values": [{"measurement": "Kd", "setting": "[1]", "value": 0.0169, "unit": "nM"}, {"measurement": "koff", "setting": "[1]", "value": 0.000101, "unit": "s⁻¹"}, {"measurement": "kon", "setting": "[1]", "value": "5.98e+06", "unit": "M⁻¹ s⁻¹"}]}
{"binder": "B4", "values": [{"measurement": "Kd", "setting": "[1]", "value": "0.0204 nM and 0.0267 nM and 0.00908 nM"}, {"measurement": "koff", "setting": "[1]", "value": "0.000152 s⁻¹ and 0.000154 s⁻¹ and 5.74e-05 s⁻¹"}, {"measurement": "kon", "setting": "[1]", "value": "7.43e+06 M⁻¹ s⁻¹ and 5.78e+06 M⁻¹ s⁻¹ and 6.32e+06 M⁻¹ s⁻¹"}, {"measurement": "Kd", "setting": "[2]", "value": "0.0475 nM and 0.0184 nM"}, {"measurement": "koff", "setting": "[2]", "value": "0.000437 s⁻¹ and 0.000222 s⁻¹"}, {"measurement": "kon", "setting": "[2]", "value": "9.19e+06 M⁻¹ s⁻¹ and 1.21e+07 M⁻¹ s⁻¹"}]}
{"binder": "B5", "values": [{"measurement": "Kd", "setting": "[1]", "value": 0.0197, "unit": "nM"}, {"measurement": "koff", "setting": "[1]", "value": 0.00016, "unit": "s⁻¹"}, {"measurement": "kon", "setting": "[1]", "value": "8.11e+06", "unit": "M⁻¹ s⁻¹"}, {"measurement": "Kd", "setting": "[2]", "value": 0.0274, "unit": "nM"}, {"measurement": "koff", "setting": "[2]", "value": 0.00041, "unit": "s⁻¹"}, {"measurement": "kon", "setting": "[2]", "value": "1.5e+07", "unit": "M⁻¹ s⁻¹"}]}
{"binder": "B6", "values": [{"measurement": "Kd", "setting": "[1]", "value": 0.0203, "unit": "nM"}, {"measurement": "koff", "setting": "[1]", "value": "7.76e-05", "unit": "s⁻¹"}, {"measurement": "kon", "setting": "[1]", "value": "3.83e+06", "unit": "M⁻¹ s⁻¹"}, {"measurement": "Kd", "setting": "[2]", "value": 0.0235, "unit": "nM"}, {"measurement": "koff", "setting": "[2]", "value": 0.000209, "unit": "s⁻¹"}, {"measurement": "kon", "setting": "[2]", "value": "8.9e+06", "unit": "M⁻¹ s⁻¹"}]}
{"binder": "B7", "values": [{"measurement": "Kd", "setting": "[1]", "value": 0.00774, "unit": "nM"}, {"measurement": "koff", "setting": "[1]", "value": "3.98e-05", "unit": "s⁻¹"}, {"measurement": "kon", "setting": "[1]", "value": "5.14e+06", "unit": "M⁻¹ s⁻¹"}, {"measurement": "Kd", "setting": "[2]", "value": 0.0276, "unit": "nM"}, {"measurement": "koff", "setting": "[2]", "value": 0.000256, "unit": "s⁻¹"}, {"measurement": "kon", "setting": "[2]", "value": "9.26e+06", "unit": "M⁻¹ s⁻¹"}]}
{"binder": "B8", "values": [{"measurement": "Kd", "setting": "[1]", "value": 0.0645, "unit": "nM"}, {"measurement": "koff", "setting": "[1]", "value": 0.000351, "unit": "s⁻¹"}, {"measurement": "kon", "setting": "[1]", "value": "5.44e+06", "unit": "M⁻¹ s⁻¹"}, {"measurement": "Kd", "setting": "[2]", "value": 0.107, "unit": "nM"}, {"measurement": "koff", "setting": "[2]", "value": 0.00104, "unit": "s⁻¹"}, {"measurement": "kon", "setting": "[2]", "value": "9.69e+06", "unit": "M⁻¹ s⁻¹"}]}
{"binder": "B9", "values": [{"measurement": "Kd", "setting": "[1]", "value": 0.00858, "unit": "nM"}, {"measurement": "koff", "setting": "[1]", "value": "5.37e-05", "unit": "s⁻¹"}, {"measurement": "kon", "setting": "[1]", "value": "6.25e+06", "unit": "M⁻¹ s⁻¹"}, {"measurement": "Kd", "setting": "[2]", "value": 0.0124, "unit": "nM"}, {"measurement": "koff", "setting": "[2]", "value": 0.000136, "unit": "s⁻¹"}, {"measurement": "kon", "setting": "[2]", "value": "1.1e+07", "unit": "M⁻¹ s⁻¹"}]}
{"binder": "B10", "values": [{"measurement": "Kd", "setting": "[1]", "value": 0.0224, "unit": "nM"}, {"measurement": "koff", "setting": "[1]", "value": 0.000163, "unit": "s⁻¹"}, {"measurement": "kon", "setting": "[1]", "value": "7.3e+06", "unit": "M⁻¹ s⁻¹"}]}
{"binder": "B11", "values": [{"measurement": "Kd", "setting": "[1]", "value": 0.0177, "unit": "nM"}, {"measurement": "koff", "setting": "[1]", "value": 0.000134, "unit": "s⁻¹"}, {"measurement": "kon", "setting": "[1]", "value": "7.59e+06", "unit": "M⁻¹ s⁻¹"}, {"measurement": "Kd", "setting": "[2]", "value": 0.0195, "unit": "nM"}, {"measurement": "koff", "setting": "[2]", "value": 0.00039, "unit": "s⁻¹"}, {"measurement": "kon", "setting": "[2]", "value": "2e+07", "unit": "M⁻¹ s⁻¹"}]}
{"binder": "B12", "values": [{"measurement": "Kd", "setting": "[1]", "value": 0.0102, "unit": "nM"}, {"measurement": "koff", "setting": "[1]", "value": 0.000128, "unit": "s⁻¹"}, {"measurement": "kon", "setting": "[1]", "value": "1.25e+07", "unit": "M⁻¹ s⁻¹"}, {"measurement": "Kd", "setting": "[2]", "value": 0.0415, "unit": "nM"}, {"measurement": "koff", "setting": "[2]", "value": 0.000371, "unit": "s⁻¹"}, {"measurement": "kon", "setting": "[2]", "value": "8.93e+06", "unit": "M⁻¹ s⁻¹"}]}
{"binder": "B13", "values": [{"measurement": "Kd", "setting": "[1]", "value": "0.0514 nM and 0.0534 nM and 0.0778 nM"}, {"measurement": "koff", "setting": "[1]", "value": "0.0004 s⁻¹ and 0.000328 s⁻¹ and 0.000352 s⁻¹"}, {"measurement": "kon", "setting": "[1]", "value": "7.78e+06 M⁻¹ s⁻¹ and 6.14e+06 M⁻¹ s⁻¹ and 4.53e+06 M⁻¹ s⁻¹"}, {"measurement": "Kd", "setting": "[2]", "value": "0.105 nM and 0.0979 nM and 0.135 nM"}, {"measurement": "koff", "setting": "[2]", "value": "0.0012 s⁻¹ and 0.00148 s⁻¹ and 0.00117 s⁻¹"}, {"measurement": "kon", "setting": "[2]", "value": "1.14e+07 M⁻¹ s⁻¹ and 1.51e+07 M⁻¹ s⁻¹ and 8.69e+06 M⁻¹ s⁻¹"}]}
{"binder": "B14", "values": [{"measurement": "Kd", "setting": "[1]", "value": 0.0371, "unit": "nM"}, {"measurement": "koff", "setting": "[1]", "value": 0.000258, "unit": "s⁻¹"}, {"measurement": "kon", "setting": "[1]", "value": "6.94e+06", "unit": "M⁻¹ s⁻¹"}]}
{"binder": "B15", "values": [{"measurement": "Kd", "setting": "[1]", "value": 0.0169, "unit": "nM"}, {"measurement": "koff", "setting": "[1]", "value": "8.43e-05", "unit": "s⁻¹"}, {"measurement": "kon", "setting": "[1]", "value": "4.99e+06", "unit": "M⁻¹ s⁻¹"}, {"measurement": "Kd", "setting": "[2]", "value": 0.0258, "unit": "nM"}, {"measurement": "koff", "setting": "[2]", "value": 0.000365, "unit": "s⁻¹"}, {"measurement": "kon", "setting": "[2]", "value": "1.41e+07", "unit": "M⁻¹ s⁻¹"}]}
